The results in this text go back to US20140274782A1, “AFFINITY REAGENTS AND METHODS FOR DETECTION, PURIFICATION, AND PROTEOMIC ANALYSIS OF METHYLATED PROTEINS” (The Board of Trustees of the Leland Stanford Junior …, priority 2013, published 2014).

One test has as its target T1, G9a and GLP (Homo sapiens, UniProt Q96KQ7+Q9H9B1).
T1 sequence (Q96KQ7 2-1210 limits assumed): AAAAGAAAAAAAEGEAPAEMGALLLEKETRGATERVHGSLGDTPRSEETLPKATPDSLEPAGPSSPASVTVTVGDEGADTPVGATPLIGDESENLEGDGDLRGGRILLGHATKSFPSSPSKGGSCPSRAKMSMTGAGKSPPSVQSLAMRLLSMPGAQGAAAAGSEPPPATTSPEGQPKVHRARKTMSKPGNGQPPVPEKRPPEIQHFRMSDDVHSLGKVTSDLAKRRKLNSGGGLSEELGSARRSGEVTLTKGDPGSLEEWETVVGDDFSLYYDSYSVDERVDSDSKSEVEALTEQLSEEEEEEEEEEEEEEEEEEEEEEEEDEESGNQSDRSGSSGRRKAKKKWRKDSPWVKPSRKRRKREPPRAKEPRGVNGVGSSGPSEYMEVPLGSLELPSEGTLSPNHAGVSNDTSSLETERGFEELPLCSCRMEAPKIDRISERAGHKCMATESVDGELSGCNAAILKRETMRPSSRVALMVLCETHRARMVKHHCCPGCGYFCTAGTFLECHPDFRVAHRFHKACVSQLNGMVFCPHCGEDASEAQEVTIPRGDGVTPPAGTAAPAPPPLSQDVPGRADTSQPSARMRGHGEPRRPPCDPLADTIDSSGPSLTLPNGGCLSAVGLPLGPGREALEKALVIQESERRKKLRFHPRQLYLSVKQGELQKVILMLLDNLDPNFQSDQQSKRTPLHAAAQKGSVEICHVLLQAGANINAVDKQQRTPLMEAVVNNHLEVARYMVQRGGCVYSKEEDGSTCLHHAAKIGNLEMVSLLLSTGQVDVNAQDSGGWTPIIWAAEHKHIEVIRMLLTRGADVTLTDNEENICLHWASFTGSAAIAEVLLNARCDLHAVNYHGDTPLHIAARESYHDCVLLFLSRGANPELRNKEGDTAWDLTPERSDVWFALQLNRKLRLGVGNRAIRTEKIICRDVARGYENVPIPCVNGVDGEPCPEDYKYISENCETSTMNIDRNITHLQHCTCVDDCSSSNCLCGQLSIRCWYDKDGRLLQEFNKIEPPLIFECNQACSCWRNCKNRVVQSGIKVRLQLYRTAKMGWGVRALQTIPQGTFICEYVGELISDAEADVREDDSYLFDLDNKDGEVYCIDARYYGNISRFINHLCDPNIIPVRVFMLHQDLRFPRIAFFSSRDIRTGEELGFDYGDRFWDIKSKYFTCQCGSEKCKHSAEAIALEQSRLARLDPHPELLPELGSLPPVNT
T1 sequence (Q9H9B1 2-1298 limits assumed): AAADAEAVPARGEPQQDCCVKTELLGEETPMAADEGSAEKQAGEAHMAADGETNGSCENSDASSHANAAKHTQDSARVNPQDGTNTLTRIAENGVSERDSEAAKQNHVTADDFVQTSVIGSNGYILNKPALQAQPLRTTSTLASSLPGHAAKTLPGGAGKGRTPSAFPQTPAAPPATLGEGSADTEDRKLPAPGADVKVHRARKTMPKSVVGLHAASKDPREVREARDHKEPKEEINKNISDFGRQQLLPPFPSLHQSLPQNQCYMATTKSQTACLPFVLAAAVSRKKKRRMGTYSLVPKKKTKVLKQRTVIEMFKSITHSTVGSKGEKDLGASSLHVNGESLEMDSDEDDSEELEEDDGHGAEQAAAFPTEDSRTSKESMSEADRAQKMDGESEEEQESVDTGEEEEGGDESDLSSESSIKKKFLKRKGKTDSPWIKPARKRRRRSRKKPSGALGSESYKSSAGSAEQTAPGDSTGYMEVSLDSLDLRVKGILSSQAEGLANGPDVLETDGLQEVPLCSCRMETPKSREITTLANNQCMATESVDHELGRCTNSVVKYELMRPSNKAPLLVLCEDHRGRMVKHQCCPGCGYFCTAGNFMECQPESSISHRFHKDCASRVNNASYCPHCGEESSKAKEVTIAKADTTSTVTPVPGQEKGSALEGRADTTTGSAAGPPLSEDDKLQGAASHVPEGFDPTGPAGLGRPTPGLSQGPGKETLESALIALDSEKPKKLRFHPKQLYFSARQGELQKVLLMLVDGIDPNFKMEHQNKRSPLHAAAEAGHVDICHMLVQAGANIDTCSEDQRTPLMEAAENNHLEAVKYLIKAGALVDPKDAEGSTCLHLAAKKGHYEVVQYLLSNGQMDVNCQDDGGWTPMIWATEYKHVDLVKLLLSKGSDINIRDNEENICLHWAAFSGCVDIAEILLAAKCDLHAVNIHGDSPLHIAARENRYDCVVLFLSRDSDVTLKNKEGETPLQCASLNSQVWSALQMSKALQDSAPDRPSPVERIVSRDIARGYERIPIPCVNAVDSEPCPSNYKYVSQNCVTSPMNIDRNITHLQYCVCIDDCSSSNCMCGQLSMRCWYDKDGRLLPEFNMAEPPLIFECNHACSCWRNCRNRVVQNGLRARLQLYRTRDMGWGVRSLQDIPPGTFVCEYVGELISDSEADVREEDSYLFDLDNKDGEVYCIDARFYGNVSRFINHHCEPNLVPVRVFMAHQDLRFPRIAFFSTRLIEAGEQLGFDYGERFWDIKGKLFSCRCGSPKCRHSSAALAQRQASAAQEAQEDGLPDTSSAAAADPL
Kind of test: Triple SILAC pull-down after UNC0638 treatment of 293T cells, DMSO/UNC0638 ratio of protein captured by 3×MBT.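 On all read-outs here: mass spectrometry (Q-Exactive) SILAC quantitation, DMSO/UNC0638 ratio computed after subtracting 3×MBTD355N mutant pull-down background, only proteins with at least twofold 3×MBT over mutant signal considered.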 The test is classed as cell-based. Further details: endogenous in cells; host or cells: HEK 293T. Conditions: for Relative to UNC0638 UNC Heavy / Relative to UNC0638 UNC Light: SILAC ratio DMSO/UNC0638 of protein pulled down with 3xMBT; for Relative to UNC0638 UNC Heavy: UNC0638 in heavy SILAC media; for Relative to UNC0638 UNC Light: UNC0638 in light SILAC media; for Relative to UNC0638 Average: average of UNC Light and UNC Heavy experiments.

For the next test, the system named is 3×MBT domain of L3MBTL1. Briefly: Triple SILAC pull-down, 3xMBT/3xMBTD355N ratio (cytoplasmic, nuclear and chromatin fractions of 293T cells).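 On all read-outs here: proteins quantified with MaxQuant, requiring at least two unique peptides and quantification in both label directions, normalized to the mean of proteins from a digested loading control.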 The test is classed as binding, human. The note with it: SILAC ratio, pull-down 3xMBT vs 3xMBTD355N; for 3xMBT/D355N UNC Heavy: experiment with UNC0638 in heavy SILAC media; for 3xMBT/D355N UNC Light: experiment with UNC0638 in light SILAC media.

B1: HNRNPUL1 (protein, UniProt Q9BUJ2 1-856, looked up)
Heterogeneous nuclear …: MDVRRLKVNELREELQRRGLDTRGLKAELAERLQAALEAEEPDDERELDADDEPGRPGHINEEVETEGGSELEGTAQPPPPGLQPHAEPGGYSGPDGHYAMDNITRQNQFYDTQVIKQENESGYERRPLEMEQQQAYRPEMKTEMKQGAPTSFLPPEASQLKPDRQQFQSRKRPYEENRGRGYFEHREDRRGRSPQPPAEEDEDDFDDTLVAIDTYNCDLHFKVARDRSSGYPLTIEGFAYLWSGARASYGVRRGRVCFEMKINEEISVKHLPSTEPDPHVVRIGWSLDSCSTQLGEEPFSYGYGGTGKKSTNSRFENYGDKFAENDVIGCFADFECGNDVELSFTKNGKWMGIAFRIQKEALGGQALYPHVLVKNCAVEFNFGQRAEPYCSVLPGFTFIQHLPLSERIRGTVGPKSKAECEILMMVGLPAAGKTTWAIKHAASNPSKKYNILGTNAIMDKMRVMGLRRQRNYAGRWDVLIQQATQCLNRLIQIAARKKRNYILDQTNVYGSAQRRKMRPFEGFQRKAIVICPTDEDLKDRTIKRTDEEGKDVPDHAVLEMKANFTLPDVGDFLDEVLFIELQREEADKLVRQYNEEGRKAGPPPEKRFDNRGGGGFRGRGGGGGFQRYENRGPPGGNRGGFQNRGGGSGGGGNYRGGFNRSGGGGYSQNRWGNNNRDNNNSNNRGSYNRAPQQQPPPQQPPPPQPPPQQPPPPPSYSPARNPPGASTYNKNSNIPGSSANTSTPTVSSYSPPQPSYSQPPYNQGGYSQGYTAPPPPPPPPPAYNYGSYGGYNPAPYTPPPPPTAQTYPQPSYNQYQQYAQQWNQYYQNQGQWPPYYGNYDYGSYSGNTQGGTSTQ
Consider B1, for which, in the test with G9a and GLP, the “Relative to UNC0638 UNC Heavy” value was −0.17 log base 2, the “Relative to UNC0638 UNC Light” value amounted to 0.61 log base 2 and the “Relative to UNC0638 Average” value worked out at 0.22 log base 2. Moreover, in the test on 3×MBT domain of L3MBTL1, the “3xMBT/D355N UNC Heavy” value is listed as 2.97 log base 2 and the “3xMBT/D355N UNC Light” value came out at 3.07 log base 2.

B2: ADAR (protein, UniProt P55265 1-1226, looked up)
Double-stranded RNA-specific …: MNPRQGYSLSGYYTHPFQGYEHRQLRYQQPGPGSSPSSFLLKQIEFLKGQLPEAPVIGKQTPSLPPSLPGLRPRFPVLLASSTRGRQVDIRGVPRGVHLRSQGLQRGFQHPSPRGRSLPQRGVDCLSSHFQELSIYQDQEQRILKFLEELGEGKATTAHDLSGKLGTPKKEINRVLYSLAKKGKLQKEAGTPPLWKIAVSTQAWNQHSGVVRPDGHSQGAPNSDPSLEPEDRNSTSVSEDLLEPFIAVSAQAWNQHSGVVRPDSHSQGSPNSDPGLEPEDSNSTSALEDPLEFLDMAEIKEKICDYLFNVSDSSALNLAKNIGLTKARDINAVLIDMERQGDVYRQGTTPPIWHLTDKKRERMQIKRNTNSVPETAPAAIPETKRNAEFLTCNIPTSNASNNMVTTEKVENGQEPVIKLENRQEARPEPARLKPPVHYNGPSKAGYVDFENGQWATDDIPDDLNSIRAAPGEFRAIMEMPSFYSHGLPRCSPYKKLTECQLKNPISGLLEYAQFASQTCEFNMIEQSGPPHEPRFKFQVVINGREFPPAEAGSKKVAKQDAAMKAMTILLEEAKAKDSGKSEESSHYSTEKESEKTAESQTPTPSATSFFSGKSPVTTLLECMHKLGNSCEFRLLSKEGPAHEPKFQYCVAVGAQTFPSVSAPSKKVAKQMAAEEAMKALHGEATNSMASDNQPEGMISESLDNLESMMPNKVRKIGELVRYLNTNPVGGLLEYARSHGFAAEFKLVDQSGPPHEPKFVYQAKVGGRWFPAVCAHSKKQGKQEAADAALRVLIGENEKAERMGFTEVTPVTGASLRRTMLLLSRSPEAQPKTLPLTGSTFHDQIAMLSHRCFNTLTNSFQPSLLGRKILAAIIMKKDSEDMGVVVSLGTGNRCVKGDSLSLKGETVNDCHAEIISRRGFIRFLYSELMKYNSQTAKDSIFEPAKGGEKLQIKKTVSFHLYISTAPCGDGALFDKSCSDRAMESTESRHYPVFENPKQGKLRTKVENGEGTIPVESSDIVPTWDGIRLGERLRTMSCSDKILRWNVLGLQGALLTHFLQPIYLKSVTLGYLFSQGHLTRAICCRVTRDGSAFEDGLRHPFIVNHPKVGRVSIYDSKRQSGKTKETSVNWCLADGYDLEILDGTRGTVDGPRNELSRVSKKNIFLLFKKLCSFRYRRDLLRLSYGEAKKAARDYETAKNYFKKGLKDMGYGNWISKPQEEKNFYLCPV
As for B2, in the test with G9a and GLP, the “Relative to UNC0638 UNC Heavy” value worked out at 0.37 log base 2, the “Relative to UNC0638 UNC Light” value is reported as 0.07 log base 2 and the “Relative to UNC0638 Average” value is given as 0.22 log base 2. In addition, in the test on 3×MBT domain of L3MBTL1, the “3xMBT/D355N UNC Heavy” value amounted to 2.00 log base 2 and the “3xMBT/D355N UNC Light” value is given as 2.47 log base 2.

B3: LIG3 (protein, UniProt P49916 43-1009, looked up)
DNA ligase 3: LLHGHPLFLRRKPVLSFQGSHLRSRATYLVFLPGLHVGLCSGPCEMAEQRFCVDYAKRGTAGCKKCKEKIVKGVCRIGKVVPNPFSESGGDMKEWYHIKCMFEKLERARATTKKIEDLTELEGWEELEDNEKEQITQHIADLSSKAAGTPKKKAVVQAKLTTTGQVTSPVKGASFVTSTNPRKFSGFSAKPNNSGEAPSSPTPKRSLSSSKCDPRHKDCLLREFRKLCAMVADNPSYNTKTQIIQDFLRKGSAGDGFHGDVYLTVKLLLPGVIKTVYNLNDKQIVKLFSRIFNCNPDDMARDLEQGDVSETIRVFFEQSKSFPPAAKSLLTIQEVDEFLLRLSKLTKEDEQQQALQDIASRCTANDLKCIIRLIKHDLKMNSGAKHVLDALDPNAYEAFKASRNLQDVVERVLHNAQEVEKEPGQRRALSVQASLMTPVQPMLAEACKSVEYAMKKCPNGMFSEIKYDGERVQVHKNGDHFSYFSRSLKPVLPHKVAHFKDYIPQAFPGGHSMILDSEVLLIDNKTGKPLPFGTLGVHKKAAFQDANVCLFVFDCIYFNDVSLMDRPLCERRKFLHDNMVEIPNRIMFSEMKRVTKALDLADMITRVIQEGLEGLVLKDVKGTYEPGKRHWLKVKKDYLNEGAMADTADLVVLGAFYGQGSKGGMMSIFLMGCYDPGSQKWCTVTKCAGGHDDATLARLQNELDMVKISKDPSKIPSWLKVNKIYYPDFIVPDPKKAAVWEITGAEFSKSEAHTADGISIRFPRCTRIRDDKDWKSATNLPQLKELYQLSKEKADFTVVAGDEGSSTTGGSSEENKGPSGSAVSRKAPSKPSASTKKAEGKLSNSNSKDGNMQTAKPSAMKVGEKLATKSSPVKVGEKRKAADETLCQTKVLLDIFTGVRLYLPPSTPDFSRLRRYFVAFDGDLVQEFDMTSATHVLGSRDKNPAAQQVSPEWIWACIRKRRLVAPC
With B3, in the test with G9a and GLP, the “Relative to UNC0638 UNC Heavy” value is recorded as 0.26 log base 2, the “Relative to UNC0638 UNC Light” value stood at 0.18 log base 2 and the “Relative to UNC0638 Average” value turned out to be 0.22 log base 2. For the same molecule, in the test on 3×MBT domain of L3MBTL1, the “3xMBT/D355N UNC Heavy” value is on record as 2.43 log base 2 and the “3xMBT/D355N UNC Light” value is listed as 2.16 log base 2.
